# Patent US9879060B2, “SV82 polypeptide, and cosmetic composition for reducing skin wrinkles and maintaining skin elasticity comprising SV82 polypeptide as active ingredient” (NEXGEN BIOTECHNOLOGIES, INC., priority 2015, dated 2018)
# Tested on: Human dermal fibroblast adult (HDFa) cells
# Assay: Cell proliferation of HDFa by crystal violet staining
# Format: cell-based
# Settings: 0.02 or 0.2 ppm, 3 days at 37° C., compared to a control (FIG. 5)
# Protocol: Human dermal fibroblast adult (HDFa) cells, which had been cultured to evaluate the activity of SV82 polypeptide that has been separated and purified in Example 2, were treated with SV82 polypeptide having a concentration of 0, 0.02 ppm or 0.2 ppm, and then incubated for 3 days at a temperature of 37° C. Thereafter, the cells were stained by crystal violate staining to identify whether the cells had proliferated.
molecule,measurement,value
"SV82 polypeptide (protein, SV82) MKYLLPTAAAGLLLLAAQPAMARATCAGQDQPCKETCDCCGERGECVCGGPCICRQGYFWIAWYKLANCKKLEHHHHHH",cell proliferation of HDFa (crystal violet staining),the more HDFa cells proliferate
